Measurements published in patent US8357518B2, “Thermostable enzymes for the hydrolysis of mannan-containing polysaccharides” (The Board of Trustees of the University of Illinois, priority 2010, dated 2013).

How the values were obtained:
Details in all cases: other: Man5B 3 nM, oligosaccharide 30 μM, citrate buffer 50 mM, pH 5.5, 5 min, triplicate
[1] = substrate: OC[C@H]1O[C@@H](O[C@H]2[C@H](O)[C@H](O)[C@H](O[C@H]3[C@H](O)[C@H](O)[C@H](O[C@H]4[C@H](O)[C@H](O)C(O)O[C@@H]4CO)O[C@@H]3CO)O[C@@H]2CO)[C@@H](O)[C@@H](O)[C@@H]1O; test: purified protein, by the assay type
[2] = substrate: OC[C@H]1O[C@@H](O[C@H]2[C@H](O)[C@@H](O)[C@H](O[C@H]3[C@H](O)[C@@H](O)[C@H](O[C@H]4[C@H](O)[C@@H](O)C(O)O[C@@H]4CO)O[C@@H]3CO)O[C@@H]2CO)[C@H](O)[C@@H](O)[C@@H]1O; test: purified protein, by the assay type
[3] = substrate: OC[C@H]1O[C@@H](O[C@H]2[C@H](O)[C@H](O)[C@H](O[C@H]3[C@H](O)[C@H](O)[C@H](O[C@H]4[C@H](O)[C@H](O)[C@H](O[C@H]5[C@H](O)[C@H](O)[C@H](O[C@H]6[C@H](O)[C@H](O)C(O)O[C@@H]6CO)O[C@@H]5CO)O[C@@H]4CO)O[C@@H]3CO)O[C@@H]2CO)[C@@H](O)[C@@H](O)[C@@H]1O; test: purified protein, by the assay type
[4] = substrate: OC[C@H]1O[C@@H](O[C@H]2[C@H](O)[C@@H](O)[C@H](O[C@H]3[C@H](O)[C@@H](O)[C@H](O[C@H]4[C@H](O)[C@@H](O)[C@H](O[C@H]5[C@H](O)[C@@H](O)[C@H](O[C@H]6[C@H](O)[C@@H](O)C(O)O[C@@H]6CO)O[C@@H]5CO)O[C@@H]4CO)O[C@@H]3CO)O[C@@H]2CO)[C@H](O)[C@@H](O)[C@@H]1O; test: purified protein, by the assay type
[5] = substrate: OC[C@H]1O[C@H](OC[C@H]2OC(O)[C@@H](O)[C@@H](O)[C@@H]2O[C@@H]2O[C@H](CO)[C@@H](O)[C@H](O)[C@@H]2O)[C@H](O)[C@@H](O)[C@H]1O; test: Catalytic efficiency with oligosaccharides, HPAEC (Man5B); assay type: biochemical, Caldanaerobius polysaccharolyticus
Description: (§1) Cloning, expression, and purification of Man5A-TM1, Man5A-TM2 and Man5B. C. polysaccharolyticus was cultured in TYG medium and DNA was isolated from mid-log cultures and purified using the Qiagen DNeasy Blood and Tissue kit with an integrated RNase treatment step. The genome of C. polysaccharolyticus was partially sequenced by the W. M. Keck Biotechnology Center at the University of Illinois at Urbana-Champaign. A Newbler assembly was generated which is comprised of ½ plate of FLX PE 454 data and ½ plate of 8 kb paired-end GSFLX Titanium data using a Genome Sequencer instrument from 454 Life Sciences (Branford, Conn.). The partial genome sequence was uploaded onto the Rapid Annotation using Subsystem Technology (RAST) server (Aziz et al., BMC Genomics, 9:75, 2008). Auto-annotation of the C. polysaccharolyticus partial genome sequence identified ORF0760 as a gene predicted to encode a bifunctional β-D-mannanase/endoglucanase (Man5B). Man5A was previously identified in a recombinant phage library of C. polysaccharolyticus genomic DNA, which was screened for endoglucanase activity (Cann et al., J Bacteriol, 181:1643, 1999) and the full sequence of this gene was also identified in the partial genome sequence for C. polysaccharolyticus.
(§2) The DNA sequence corresponding to man5B was amplified by the PicoMaxx high fidelity PCR kit using genomic DNA as the template with the primer set Man5B-Forward and Man5B-Reverse (Table 1-1). The primers were engineered to incorporate a 5′-[…] (SEQ ID NO: 54) extension in Man5B-F and a 5′-[…] (SEQ ID NO: 55) extension in Man5B-R, which facilitated subsequent directional cloning. The resultant man5B amplicon was then digested with T4 DNA polymerase exonuclease activity, annealed with a similarly digested pET-46b vector and introduced into E. coli JM109 by electroporation. Man5A-TM1 was amplified using genomic DNA as template with primers Man5A-TM1-F and Man5A-TM1-R (Table 1-1). The primer sets for Man5A-TM1 and Man5A-TM2 were designed to include 5′-NdeI and 3′-XhoI restriction sites for subsequent directional cloning. The resulting amplicons were then cloned into the pGEM-T vector via TA-cloning and subcloned in-frame with the hexahistidine (His6) encoding sequence of a modified pET-28a expression vector via its NdeI-XhoI polylinker site. The truncated protein Man5A-TM2 originally named ManA-SLH-CBD was cloned as described in a previous study (Cann et al., J Bacteriol, 181:1643, 1999). Expression of each of the resulting gene constructs yielded fusion proteins containing an N-terminal polyhistidine tag sequence to facilitate affinity purification via metal chelate chromatography. The resulting plasmid constructs pET46-Man5B, pET28a-Man5A-TM1, and pET-28a-Man5A-TM2 were sequenced to confirm the integrity of the cloned genes (W. M. Keck Center for Comparative and Functional Genomics at the University of Illinois at Urbana-Champaign).
(§3) The plasmid constructs were then introduced into E. coli BL-21 CodonPlus (DE3) RIL competent cells by heat shock, and grown overnight in lysogeny broth (LB) agar medium supplemented with ampicillin (100 μg/mL) and chloramphenicol (50 μg/mL) at 37° C. After 12 h, single colonies were selected and used to inoculate fresh LB (10 mL) supplemented with the antibiotics above at the same concentrations, followed by culturing with aeration for 8 h at 37° C. […]

[6] = substrate: OC[C@H]1O[C@@H](O[C@H]2[C@H](O)[C@@H](O)[C@H](O[C@H]3[C@H](O)[C@@H](O)[C@H](O[C@H]4[C@H](O)[C@@H](O)[C@H](O[C@H]5[C@H](O)[C@@H](O)C(O)O[C@@H]5CO)O[C@@H]4CO)O[C@@H]3CO)O[C@@H]2CO)[C@H](O)[C@@H](O)[C@@H]1O; test: as above; assay type: biochemical, Caldanaerobius polysaccharolyticus
Description: as §1, §2, §3

B1: Caldanaerobius polysaccharolyticus endo-β-mannanase Man5B, wild type, SEQ ID NO: 31 (Caldanaerobius polysaccharolyticus) (protein)
chain: MKKYGFNFQWMYVWEEGREPEPPDKKALDFLAETGFNFVRIPVDYRFWTRNFDYFNPDKKVFEYIDLYLRECSARNIHMCLNLHRAPGYCINRNDIERDNLWLDKRAQDGFVYQWELFAKRYKGVSSKFLSFDLVNEPPNIGQYGLTRENHASLIIRTVEAIRKIDPDREIVIDGLGGGNIAMPELAHLGVVHSGRGYQPMALTHYQASWWDGHKGLPEPYYPDLLWQGKVWNKDTLREYYKPWRDLQQKGVNVHIGEFGCFNKTSNDVAIRWFEDVLSLYKEFEWGYSLWNFKGPFGIVEHGRPGAKYEYYRGFKVDRELLDLLVENRV
B1 was tested, and the kcat/Km [1] was 63000 ± 6000 M⁻¹ s⁻¹, the kcat/Km [2] was 1400 ± 200 M⁻¹ s⁻¹ and the kcat/Km [3] was “(2.7 ± 0.7) × 10^2 mM^−1 s^−1”. It also gave a kcat/Km [4] of 43000 ± 3000 M⁻¹ s⁻¹, a kcat/Km [5] of 1500 ± 200 M⁻¹ s⁻¹ and a kcat/Km [6] of 17000 ± 3000 M⁻¹ s⁻¹.
